Key:
[1] = molecular target: T1, human PD-L1 expressed on cells (hPD-L1-CHOK1 / human PD-L1-CHO transfectants, LOX melanoma cells, human … (human, UniProt Q9NZQ7 19-290)); assay: flow cytometry on hPD-L1 positive LOX melanoma cells, 1 microgram/ml antibody, against isotype control mouse antibody
T1 construct: Cell surface PD-L1 on transfected CHO cells, on LOX melanoma cells or in FFPE tissue and cell pellets; also called human Programmed Death Ligand 1; mature PD-L1
Description: Another experiment assessed the binding specificity of 20C3 and 22C3 for hPD-L1-expressing cells. HT144 cells which were known to be negative for expression of hPD-L1 by mRNA analysis (qPCR) and LOX melanoma cells known to express high levels of hPD-L1 mRNA (qPCR) were stained with 1 microgram/ml of purified mouse IgG from seven hybridomas generated in the experiments described in Example 1 above. An irrelevant isotype control mouse antibody was also used at the identical concentration. A fluorescent-labeled anti-mouse secondary antibody was used to detect the primary mouse antibodies. After staining and repeated washing, the cells were analyzed by flow cytometry, with median fluorescent intensities calculated for the population (>10,000 events collected).
20C3 and 22C3 as well as other hPD-L1 antibodies were employed as flow cytometric reagents to detect cell surface hPD-L1. The significant right shift of both the 20C3 and 22C3 histogram curves (FIG. 6A) as compared to the isotype control antibody curve reflects selective detection of hPD-L1 on the hPD-L1-positive LOX melanoma cell line.

[2] = molecular target: T2, mouse PD-L1 (mouse, UniProt Q9EP73 19-238, limits assumed); assay: ELISA similar to the cell-based ELISA
T2 construct: Tested in 'a similar ELISA experiment'
T2 sequence (Q9EP73 19-238 limits assumed): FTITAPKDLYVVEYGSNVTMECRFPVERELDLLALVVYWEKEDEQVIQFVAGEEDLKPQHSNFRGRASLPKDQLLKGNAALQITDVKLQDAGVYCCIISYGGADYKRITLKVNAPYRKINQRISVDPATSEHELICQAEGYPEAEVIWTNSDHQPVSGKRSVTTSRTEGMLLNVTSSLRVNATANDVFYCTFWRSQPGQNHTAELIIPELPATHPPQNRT

T1 sequence (Q9NZQ7 19-290 limits assumed): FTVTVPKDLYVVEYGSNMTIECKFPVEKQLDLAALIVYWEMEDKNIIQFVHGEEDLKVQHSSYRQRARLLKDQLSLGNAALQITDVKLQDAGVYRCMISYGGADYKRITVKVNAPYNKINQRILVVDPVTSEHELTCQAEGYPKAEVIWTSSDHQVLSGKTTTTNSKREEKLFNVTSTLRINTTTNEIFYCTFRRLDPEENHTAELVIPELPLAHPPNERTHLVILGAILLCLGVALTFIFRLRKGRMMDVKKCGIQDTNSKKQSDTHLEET

| fold increase in MFI compared to isotype [1] [fold] | binding result [2] | Binder |
| --- | --- | --- |
| ≥ 10 | no binding | Monoclonal Antibody MEB037.20C3 (antibody, mouse IgG1, V domains shown, Mouse IgG1 from hybridoma; also called antibody 20C3; antibody produced by hybridoma subclone MEB037.20C3.116) VH: QVQVQQSGAELAEPGASVKMSCKASGYIFTSYWMHWLKQRPGQGLEWIGYINPSSDYNEYSEKFMDKATLTADKASTTAYMQLISLTSEDSAVYYCARSGWLVHGDYYFDYWGQGTTLTVSS VL: DIVMSQSPSSLAVSAGEKVTMSCKSSQSLLNSRTRKNYLAWYQQKPGQSPKLLIYWASTRESGVPDRFTGSGSGTDFTLTISSVQAEDLAVYYCQQSYDVVTFGAGTKLELK |
| ≥ 10 | no binding | Monoclonal Antibody MEB037.22C3 (antibody, V domains shown, N-terminal residue of the mature heavy chain is either glutamine or pyro-glutamate (pE), Mouse IgG1 from hybridoma (allotype S414R of a mouse IgG1); also called antibody 22C3; antibody produced by hybridoma subclone MEB037.22C3.138) VH: QVHLQQSGAELAKPGASVKMSCKASGYTFTSYWIHWIKQRPGQGLEWIGYINPSSGYHEYNQKFIDKATLTADRSSSTAYMHLTSLTSEDSAVYYCARSGWLIHGDYYFDFWGQGTTLTVSS VL: DIVMSQSPSSLAVSAGEKVTMTCKSSQSLLHTSTRKNYLAWYQQKPGQSPKLLIYWASTRESGVPDRFTGSGSGTDFTLTISSVQAEDLAVYYCKQSYDVVTFGAGTKLELK |
